Laboratory results reported in paper PMC9633295 (Cancer Science, 2022).
Positions count from the first letter of the chain named.

How the values were obtained:
[1] = target: T1, recombinant human CD155-Fc fusion protein, WT (human, UniProt P15151 21-343); assay: BLI
T1 sequence (looked up): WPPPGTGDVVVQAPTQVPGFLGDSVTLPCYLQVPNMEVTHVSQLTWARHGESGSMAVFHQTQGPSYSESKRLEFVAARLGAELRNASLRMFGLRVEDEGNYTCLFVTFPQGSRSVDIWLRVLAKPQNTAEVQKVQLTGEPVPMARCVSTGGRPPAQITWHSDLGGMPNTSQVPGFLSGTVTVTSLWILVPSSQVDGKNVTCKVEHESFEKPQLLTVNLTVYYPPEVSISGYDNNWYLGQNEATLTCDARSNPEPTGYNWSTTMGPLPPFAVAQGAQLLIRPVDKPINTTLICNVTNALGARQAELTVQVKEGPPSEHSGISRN

[2] = target: T2, recombinant human CD155-Fc fusion protein, mutant (Ala67Thr) (human, UniProt P15151 21-343, Ala67Thr); assay: BLI
T2 sequence (looked up): T1 sequence (looked up) with A47T

- binding result [1]: binds
- binding result [2]: binds
B1: His-tagged recombinant human DNAM-1 (receptor, UniProt Q15762 19-254, looked up)
chain: EEVLWHTSVPFAENMSLECVYPSMGILTQVEWFKIGTQQDSIAIFSPTHGMVIRKPYAERVYFLNSTMASNNMTLFFRNASEDDVGYYSCSLYTYPQGTWQKVIQVVQSDSFEAAVPSNSHIVSEPGKNVTLTCQPQMTWPVQAVRWEKIQPRQIDLLTYCNLVHGRNFTSKFPRQIVSNCSHGRWSVIVIPDVTVSDSGLYRCYLQASAGENETFVMRLTVAEGKTDNQYTLFVA
